# Experimental data: publication PMC2580787 (The EMBO journal, 2008)
# T1: Sec24d (lacking residues 1-266) (human, UniProt O94855 267-1032)
# T1 sequence (looked up): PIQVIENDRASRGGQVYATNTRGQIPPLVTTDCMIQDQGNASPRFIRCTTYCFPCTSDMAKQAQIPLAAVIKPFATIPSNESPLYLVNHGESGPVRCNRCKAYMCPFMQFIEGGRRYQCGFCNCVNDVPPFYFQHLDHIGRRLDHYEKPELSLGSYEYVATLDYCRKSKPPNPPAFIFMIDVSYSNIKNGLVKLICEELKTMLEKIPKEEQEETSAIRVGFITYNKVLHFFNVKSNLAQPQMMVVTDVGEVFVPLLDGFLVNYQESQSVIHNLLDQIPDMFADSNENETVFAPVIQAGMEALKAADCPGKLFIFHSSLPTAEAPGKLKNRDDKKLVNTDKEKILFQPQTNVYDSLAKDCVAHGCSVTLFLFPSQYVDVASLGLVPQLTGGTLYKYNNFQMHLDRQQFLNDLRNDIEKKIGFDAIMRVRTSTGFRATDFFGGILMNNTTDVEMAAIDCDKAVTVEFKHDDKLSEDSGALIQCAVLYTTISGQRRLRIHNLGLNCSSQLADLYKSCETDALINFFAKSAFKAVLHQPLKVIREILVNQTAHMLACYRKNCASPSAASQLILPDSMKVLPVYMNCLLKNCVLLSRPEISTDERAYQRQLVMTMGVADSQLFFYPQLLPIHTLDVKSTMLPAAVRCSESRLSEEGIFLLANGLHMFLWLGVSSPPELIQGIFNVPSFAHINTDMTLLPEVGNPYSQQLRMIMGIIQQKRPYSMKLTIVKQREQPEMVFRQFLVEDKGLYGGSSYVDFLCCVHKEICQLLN
# Target: T1, Sec24d (lacking residues 1-266)
row,Binder,binding result
1,DVAIDMMDP [syntaxin 5 peptide 188DVAIDMMDP196],binds
2,TTIPMDE [membrin peptide 116TTIPMDE122],binds
